The target of the test is His-tagged full-length ActA (ActA[1–584Rhis]) (Listeria monocytogenes). The test is described as follows: co-sedimentation.
His-tagged full-length ActA (ActA[1–584Rhis]) (Listeria monocytogenes), sequence (P33379 30-613 limits assumed): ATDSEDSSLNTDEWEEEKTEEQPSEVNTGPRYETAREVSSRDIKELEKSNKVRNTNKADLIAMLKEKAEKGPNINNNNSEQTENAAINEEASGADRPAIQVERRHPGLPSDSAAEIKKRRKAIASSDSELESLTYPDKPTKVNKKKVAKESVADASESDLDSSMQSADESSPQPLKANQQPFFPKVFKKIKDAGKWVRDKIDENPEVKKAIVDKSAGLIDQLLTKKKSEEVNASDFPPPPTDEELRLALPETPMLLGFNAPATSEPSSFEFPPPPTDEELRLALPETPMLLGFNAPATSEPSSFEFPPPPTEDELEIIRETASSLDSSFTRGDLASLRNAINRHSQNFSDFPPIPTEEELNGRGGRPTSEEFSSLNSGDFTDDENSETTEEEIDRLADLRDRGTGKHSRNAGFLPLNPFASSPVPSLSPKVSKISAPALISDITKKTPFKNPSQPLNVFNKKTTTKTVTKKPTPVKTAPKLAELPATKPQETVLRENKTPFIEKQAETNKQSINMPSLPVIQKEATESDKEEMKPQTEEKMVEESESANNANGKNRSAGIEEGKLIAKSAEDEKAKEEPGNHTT

For “His-tagged human vasodilator-stimulated phosphoprotein (VASP) (from UniProt P50552 1-380) (natural protein)”, the percent bound was above 90%.

Values taken from article PMC2173428.
